From US20200347143A1 (GLENMARK PHARMACEUTICALS S A, published 2020)

T1: human OX40 on cells (human, UniProt P43489 29-277)
T1 sequence (looked up): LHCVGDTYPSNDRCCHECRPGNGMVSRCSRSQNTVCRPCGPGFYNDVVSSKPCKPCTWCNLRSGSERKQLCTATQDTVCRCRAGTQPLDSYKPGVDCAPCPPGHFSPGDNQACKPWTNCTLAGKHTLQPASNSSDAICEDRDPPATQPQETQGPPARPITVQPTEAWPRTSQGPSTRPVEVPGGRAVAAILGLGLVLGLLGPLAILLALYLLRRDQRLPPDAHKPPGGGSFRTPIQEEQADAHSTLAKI

B1: 7H11 IgG1 LALA (antibody, V domains shown)
VH: QVQLVQSGAEVKKPGASVKVSCKASGYTFTRYYMHWVRQAPGQGLEWMGWIYPGDGSTKYAQKFQGRVTMTRDTSISTAYMELSRLRSDDTAVYYCAREYGNYDYWGQGTLVTVSS
VL: DIVMTQSPDSLAVSLGERATINCKSSQSLLNSGNQKNYLAWYQQKPGQPPKLLIYGASTRESGVPDRFSGSGSGTDFTLTISSLQAEDVAVYYCQNDHSYPYTFGQGTKLEIKR
B2: Tetra-19 (bispecific antibody, human IgG1, kappa, L234A L235A)
heavy 1: QVQLVQSGAEVKKPGASVKVSCKASGYTFTRYYMHWVRQAPGQGLEWMGWIYPGEGSTKYAQKFQGRVTMTRDTSISTAYMELSRLRSDDTAVYYCAREYGNYDYWGQGTLVTVSSASTKGPSVFPLAPSSKSTSGGTAALGCLVKDYFPEPVTVSWNSGALTSGVHTFPAVLQSSGLYSLSSVVTVPSSSLGTQTYICNVNHKPSNTKVDKKVEPKSCDKTHTCPPCPAPEAAGGPSVFLFPPKPKDTLMISRTPEVTCVVVDVSHEDPEVQFKWYVDGVEVHNAKTKPREEQYNSTFRVVSVLTVLHQDWLNGKEYKCKVSNKALPAPIEKTISKTKGQPREPAVYTLPPSREEMTKNQVKLVCLVTGFYPSDIAVEWESSGQPENNYYTTPPMLDSDGSFSLVSWLNVDKSRWQQGNIFSCSVMHEALHNRFTQKSLSLSPGGGGGTEVQLVESGGGLVQPGGSLRLSCAVSGYSITSDYAWNWIRQAPGKCLEWMGYISYSGSTAYNPSLKSRITISRDTSKNTFYLQMSSLRAEDTAVYYCARGPYNYLAYWGQGTLVTVSSGGGGSGGGGSGGGGSDIQLTQSPSSLSASVGDRVTITCRASESVDNYGISFMNWFQQKPGKAPKLLIYAASNQKSGVPSRFSGSGSGTDFTLTISSLQPEDFATYFCQQSKEVPLTFGCGTKVEIL
heavy 2: QVQLVQSGAEVKKPGASVKVSCKASGYTFTRYYMHWVRQAPGQGLEWMGWIYPGEGSTKYAQKFQGRVTMTRDTSISTAYMELSRLRSDDTAVYYCAREYGNYDYWGQGTLVTVSSASTKGPSVFPLAPSSKSTSGGTAALGCLVKDYFPEPVTVSWNSGALTSGVHTFPAVLQSSGLYSLSSVVTVPSSSLGTQTYICNVNHKPSNTKVDKKVEPKSCDKTHTCPPCPAPEAAGGPSVFLFPPKPKDTLMISRTPEVTCVVVDVSHEDPEVKFNWYVDGVEVHNAKTKPREEQYNSTYRVVSVLTVLHQDWLNGKEYKCKVSNKALPAPIEKTISKAKGQPREPEVATFPPSRDELTKNQVTLVCLVTGFYPSDIAVEWESNGQPENNYKTDPPLLESQGSFALSSRLRVDKSRWQQGNVFSCSVMHEALHNHYTQKSLSLSPGGGGGTQVQLVQSGAEVKKPGASVKVSCKASGYTFTRYYMHWVRQAPGQGLEWMGWIYPGEGSTKYAQKFQGRVTMTRDTSISTAYMELSRLRSDDTAVYYCAREYGNYDYWGQGTLVTVSSASTKGPSVFPLAPSSKSTSGGTAALGCLVKDYFPEPVTVSWNSGALTSGVHTFPAVLQSSGLYSLSSVVTVPSSSLGTQTYICNVNHKPSNTKVDKKVEPKSC
light: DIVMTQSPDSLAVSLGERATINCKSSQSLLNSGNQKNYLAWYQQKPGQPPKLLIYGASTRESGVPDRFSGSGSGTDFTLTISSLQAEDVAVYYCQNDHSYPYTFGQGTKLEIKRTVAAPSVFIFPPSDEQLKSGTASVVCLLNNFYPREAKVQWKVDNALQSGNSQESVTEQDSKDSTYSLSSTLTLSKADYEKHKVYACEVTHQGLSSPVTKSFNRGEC
B3: 2H6 IgG1 LALA (antibody)
heavy: not shown
light: DIQLTQSPSSLSASVGDRVTITCRASESVDNYGISFMNWFQQKPGKAPKLLIYAASNQKSGVPSRFSGSGSGTDFTLTISSLQPEDFATYFCQQSKEVPLTFGQGTKVEIKRTVAAPSVFIFPPSDEQLKSGTASVVCLLNNFYPREAKVQWKVDNALQSGNSQESVTEQDSKDSTYSLSSTLTLSKADYEKHKVYACEVTHQGLSSPVTKSFNRGEC
B4: Tetra-15 (antibody, human IgG1, kappa, L234A L235A)
heavy: not shown
light: B3 light
B5: Tetra-20 (bispecific antibody, human IgG1, kappa, L234A L235A)
heavy 1: EVQLVESGGGLVQPGGSLRLSCAVSGYSITSDYAWNWIRQAPGKGLEWMGYISYSGSTAYNPSLKSRITISRDTSKNTFYLQMSSLRAEDTAVYYCARGPYNYLAYWGQGTLVTVSSASTKGPSVFPLAPSSKSTSGGTAALGCLVKDYFPEPVTVSWNSGALTSGVHTFPAVLQSSGLYSLSSVVTVPSSSLGTQTYICNVNHKPSNTKVDKKVEPKSCDKTHTCPPCPAPEAAGGPSVFLFPPKPKDTLMISRTPEVTCVVVDVSHEDPEVQFKWYVDGVEVHNAKTKPREEQYNSTFRVVSVLTVLHQDWLNGKEYKCKVSNKALPAPIEKTISKTKGQPREPAVYTLPPSREEMTKNQVKLVCLVTGFYPSDIAVEWESSGQPENNYYTTPPMLDSDGSFSLVSWLNVDKSRWQQGNIFSCSVMHEALHNRFTQKSLSLSPGGGGGTQVQLVQSGAEVKKPGASVKVSCKASGYTFTRYYMHWVRQAPGQCLEWMGWIYPGEGSTKYAQKFQGRVTMTRDTSISTAYMELSRLRSDDTAVYYCAREYGNYDYWGQGTLVTVSSGGGGSGGGGSGGGGSDIVMTQSPDSLAVSLGERATINCKSSQSLLNSGNQKNYLAWYQQKPGQPPKLLIYGASTRESGVPDRFSGSGSGTDFTLTISSLQAEDVAVYYCQNDHSYPYTFGCGTKLEIL
heavy 2: EVQLVESGGGLVQPGGSLRLSCAVSGYSITSDYAWNWIRQAPGKGLEWMGYISYSGSTAYNPSLKSRITISRDTSKNTFYLQMNSLRAEDTAVYYCARGPYNYLAYWGQGTLVTVSSASTKGPSVFPLAPSSKSTSGGTAALGCLVKDYFPEPVTVSWNSGALTSGVHTFPAVLQSSGLYSLSSVVTVPSSSLGTQTYICNVNHKPSNTKVDKKVEPKSCDKTHTCPPCPAPEAAGGPSVFLFPPKPKDTLMISRTPEVTCVVVDVSHEDPEVKFNWYVDGVEVHNAKTKPREEQYNSTYRVVSVLTVLHQDWLNGKEYKCKVSNKALPAPIEKTISKAKGQPREPEVATFPPSRDELTKNQVTLVCLVTGFYPSDIAVEWESNGQPENNYKTDPPLLESDGSFALSSRLRVDKSRWQQGNVFSCSVMHEALHNHYTQKSLSLSPGGGGGTEVQLVESGGGLVQPGGSLRLSCAVSGYSITSDYAWNWIRQAPGKGLEWMGYISYSGSTAYNPSLKSRITISRDTSKNTFYLQMNSLRAEDTAVYYCARGPYNYLAYWGQGTLVTVSSASTKGPSVFPLAPSSKSTSGGTAALGCLVKDYFPEPVTVSWNSGALTSGVHTFPAVLQSSGLYSLSSVVTVPSSSLGTQTYICNVNHKPSNTKVDKKVEPKSC
light: B3 light
B6: Tetra-18 (antibody, human IgG1, kappa, L234A L235A)
heavy: not shown
light: B3 light
B7: Tetra-14 (bispecific antibody, human IgG1, kappa, L234A L235A)
heavy: not shown
light: B3 light

Molecular target: T1, human OX40 on cells
Assay: cell-based or functional assay

Binder	% donor responder (>2), SEB assay, IL-2 release [%]	Mean, normalized IL-2 release, SEB assay
B1	6	0.81
B2	0	1
B3	25	1.45
B4	0	0.93
B5	0	1.14
B6	0	0.88
B7	40	1.65
